According to PMC9337993:
Values belong to the substance of their own block, whether it stands above or below them.

What was measured:
[1] = target: Cys95Ala SynZur (Synechococcus sp. WH8102); experiment: native MS; native (near-native) ESI-MS, deconvoluted; WT after EDTA treatment (Zn1SynZur), Cys95Ala as purified
[2] = target: Cys95Ala SynZur (Synechococcus sp. WH8102); experiment: SEC; analytical SEC, Superdex 200 10/300, 0.5 ml/min; Zn2SynZur 40 uM, Cys95Ala SynZur 30 uM, in 20 mM Tris-HCl pH 8, 300 mM NaCl; methods give 50 mM Tris pH 8.0, 100 mM NaCl
[3] = target: T1, Cys95Ala SynZur C95A (Synechococcus sp. WH8102) (UniProt Q7U3N0); experiment: EMSA; details: EMSA: 10 mM Tris pH 8, 50 mM KCl, 2 mM MgCl2, 5% glycerol, 0.05 mg/ml BSA, 1 mM DTT, 3 mM spermidine, 5 ng DNA in 10 ul, room temperature 30 min, gel at 4 C …
T1 sequence: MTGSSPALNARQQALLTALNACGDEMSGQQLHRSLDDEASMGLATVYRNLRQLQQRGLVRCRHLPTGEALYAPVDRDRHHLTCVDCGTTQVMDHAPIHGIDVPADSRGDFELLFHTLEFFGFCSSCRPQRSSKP

[4] = target: SynZur (SYNW2401), zinc uptake regulator Zur from Synechococcus sp. WH8102 (Synechococcus sp. WH8102); experiment: native MS; native (near-native) ESI-MS, deconvoluted; WT after EDTA treatment (Zn1SynZur), Cys95Ala as purified
[5] = target: SynZur (SYNW2401), zinc uptake regulator Zur from Synechococcus sp. WH8102 (Synechococcus sp. WH8102); experiment: crystal structure; X-ray, 2.1 Å, space group P65, four molecules (two dimers) in the asymmetric unit; 100 mM magnesium acetate, 100 mM MES pH 6, 16% PEG 10000, 4 °C
[6] = target: SynZur (SYNW2401), zinc uptake regulator Zur from Synechococcus sp. WH8102 (Synechococcus sp. WH8102); experiment: nondenaturing SDS-PAGE; 10% Tris-glycine gel, 50 mM Tris pH 7.3, 50 mM MOPS, 0.0375% SDS, 4 °C, 100 V
[7] = target: SynZur (SYNW2401), zinc uptake regulator Zur from Synechococcus sp. WH8102 (Synechococcus sp. WH8102); experiment: dynamic light scattering; 20 uM protein in 50 mM Tris, 25 °C; hydrodynamic diameter compared with values calculated for monomers, dimers and tetramers

- stoichiometry N [1]: 2
- stoichiometry N [2]: 2
Substance: Cys95Ala SynZur (natural protein)

Substance: GTTCCATCCACAGCCACAACGCTTGGCTGGGCCGCCTGCGCCGCGACTGAACAACCCGAGACAACGCCCAGGGCGACCGCCAGACCCTTGACCAAAAGCGCAGGACGCGCCATGACACTCGAATGAGAATGATTATCATTTTTACAGTTCAACGGGTTGGCGCAACCCAATCGCGACCGCATGATGAAGTGAACCCACCGCAGCTGTGACAGAACCGCATTCGTCCATCAAGGGGCATCTAGCAGCCAGGAATCTC (double strand) [PznuA promoter (znuC-znuA intergenic fragment)]
- binding [3]: no binding

- stoichiometry N [4]: 2
- stoichiometry N [5]: 2
- stoichiometry N [6]: 2
- stoichiometry N [7]: 2
Substance: SynZur (SYNW2401), zinc uptake regulator Zur from Synechococcus sp. WH8102 (natural protein)
